The text below walks through data of publication PMC11538452.

The test concerns the target A9 anti-CD40 antibody, deimmunized variant. Put plainly: SPR; wildtype against deimmunized variant on the CD40 protein (Supplementary Fig. 3B); format of this experiment not told in what was shown. On the technique in general: Surface plasmon resonance follows binding to a sensor surface in real time, without labels.

Chain of human CD40-Fc (P25942 21-193): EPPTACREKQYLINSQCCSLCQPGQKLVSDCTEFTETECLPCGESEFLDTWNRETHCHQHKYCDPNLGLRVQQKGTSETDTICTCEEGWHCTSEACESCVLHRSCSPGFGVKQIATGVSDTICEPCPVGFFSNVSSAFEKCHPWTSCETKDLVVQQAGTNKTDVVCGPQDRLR

The term Kd denotes a measure of binding affinity in units of concentration. In the case of “human CD40-Fc (from UniProt P25942 21-193) (Fc fusion)”, the dissociation constant Kd amounted to 1.6 nM.
